Earlier results as cited in paper PMC6136702.

Molecular target: EGFR (Homo sapiens) (UniProt P00533)

In the case of EGF (from UniProt P01133), the Kd is given as 0.2 nM.
